Biological target: ST-pro-factor D-His, P00746
Sequence (P00746 whole entry, looked up): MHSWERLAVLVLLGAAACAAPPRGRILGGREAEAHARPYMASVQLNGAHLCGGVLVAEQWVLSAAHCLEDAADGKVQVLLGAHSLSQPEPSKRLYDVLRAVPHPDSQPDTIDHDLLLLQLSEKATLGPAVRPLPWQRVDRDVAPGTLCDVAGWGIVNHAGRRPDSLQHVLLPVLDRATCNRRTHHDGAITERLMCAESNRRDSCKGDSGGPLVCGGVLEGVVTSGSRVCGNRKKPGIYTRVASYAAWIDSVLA

| Protein | cleavage of pro-factor D (Western blot) |
| --- | --- |
| recombinant full-length human MASP-3 (protein) HTVELNNMFGQIQSPGYPDSYPSDSEVTWNITVPDGFRIKLYFMHFNLESSYLCEYDYVKVETEDQVLATFCGRETTDTEQTPGQEVVLSPGSFMSITFRSDFSNEERFTGFDAHYMAVDVDECKEREDEELSCDHYCHNYIGGYYCSCRFGYILHTDNRTCRVECSDNLFTQRTGVITSPDFPNPYPKSSECLYTIELEEGFMVNLQFEDIFDIEDHPEVPCPYDYIKIKVGPKVLGPFCGEKAPEPISTQSHSVLILFHSDNSGENRGWRLSYRAAGNECPELQPPVHGKIEPSQAKYFFKDQVLVSCDTGYKVLKDNVEMDTFQIECLKDGTWSNKIPTCKIVDCRAPGELEHGLITFSTRNNLTTYKSEIKYSCQEPYYKMLNNNTGIYTCSAQGVWMNKVLGRSLPTCLPECGQPSRSLPSLVKRIIGGRNAEPGLFPWQALIVVEDTSRVPNDKWFGSGALLSASWILTAAHVLRSQRRDTTVIPVSKEHVTVYLGLHDVRDKSGAVNSSAARVVLHPDFNIQNYNHDIALVQLQEPVPLGPHVMPVCLPRLEPEGPAPHMLGLVAGWGISNPNVTVDEIISSGTRTLSDVLQYVKLPVVPHAECKTSYESRSGNYSVTENMFCAGYYEGGKDTCLGDSGGAFVIFDDLSQRWVVQGLVSWGGPEECGSKQVYGVYTKVSNYVDWVWEQMGLPQSVVEPQVER | only full length MASP-3 (lane 2) and the MASP-1 CCP1-CCP2-SP) fragment (lane 5) cleaved ST-pro-factor D-His6 |
| recombinant human MASP-1 (CCP1-CCP2-SP) fragment, active (protein) GNECPELQPPVHGKIEPSQAKYFFKDQVLVSCDTGYKVLKDNVEMDTFQIECLKDGTWSNKIPTCKIVDCRAPGELEHGLITFSTRNNLTTYKSEIKYSCQEPYYKMLNNNTGIYTCSAQGVWMNKVLGRSLPTCLPVCGLPKFSRKLMARIFNGRPAQKGTTPWIAMLSHLNGQPFCGGSLLGSSWIVTAAHCLHQSLDPKDPTLRDSDLLSPSDFKIILGKHWRLRSDENEQHLGVKHTTLHPKYDPNTFENDVALVELLESPVLNAFVMPICLPEGPQQEGAMVIVSGWGKQFLQRFPETLMEIEIPIVDHSTCQKAYAPLKKKVTRDMICAGEKEGGKDACSGDSGGPMVTLNRERGQWYLVGTVSWGDDCGKKDRYGVYSYIHHNKDWIQRVTGVRN | only full length MASP-3 (lane 2) and the MASP-1 CCP1-CCP2-SP) fragment (lane 5) cleaved ST-pro-factor D-His6 |

Reference: patent US20200270125
